Read-outs that look alike come from different tables or passages of the source. Each block holds one substance with its values, some of them ahead of it.
Experiments:
[1] = molecular target: Human FcRn (hFcRn), soluble α-chain/β2m heterodimer (human) (UniProt P55899); test: BLI
[2] = molecular target: Human FcRn (hFcRn), soluble α-chain/β2m heterodimer (human) (UniProt P55899); test: BLI; remark: listed apart in the source
[3] = molecular target: Human FcRn (hFcRn), soluble α-chain/β2m heterodimer (human) (UniProt P55899); test: BLI; hFcRn-loaded surface; human IgG1 as analyte, association at pH 6.0 and dissociation at pH 6.0
[4] = molecular target: Human FcRn (hFcRn), soluble α-chain/β2m heterodimer, P55899;P61769; test: BLI (in vitro BLI-based FcRn platform); details: parent: est. 270; read off a plot
[5] = molecular target: CDA1 (actoxumab), human IgG1 monoclonal antibody (UniProt P01857); test: biolayer interferometry (Octet QK, ForteBio); details: 30°C, PBS (composition and salt concentration not stated), PBS adjusted to pH 6.0 with HCl for the acidic steps, PBS pH 7.5 for the physiological-pH steps

Substance: CDA1 (actoxumab), fully human IgG1 mAb (antibody)
fold change FcRn binding rate [1]: 1.14 fold
fold change of the association rate against RAB1 [1]: 1.09 fold
fold change of the dissociation rate against CDB1 [1]: 1.18 fold
koff [1]: 0.0906 s⁻¹
koff [2]: 0.101 s⁻¹
fold slower off-rate at pH 6.0 than at pH 7.5 [3]: 5 fold

other: Predicted Human t1/2, β [4]: 27.1 days
Substance: HCV1, fully human IgG1 mAb HCV (with CDA VH CDRs and CDB Vk CDRs): VH CDR1-3 of HCV1 replaced by VH CDRs of CDA1; Vk CDR1-3 of HCV1 replaced by Vk CDRs of CDB1; residues not printed

Substance: soluble human neonatal Fc receptor (hFcRn; alpha-chain/beta2-microglobulin heterodimer)
average association rate (apparent kon) ([5]; pH 6.0): 0.2087 ± 0.0036 s⁻¹
kon (apparent association rate) ([5]; pH 6.0): 0.110 s⁻¹
average dissociation rate (koff) ([5]; pH 7.5): 0.0906 ± 0.0034 s⁻¹
koff ([5]; pH 7.5): 0.101 s⁻¹

— paper PMC4622054
